From patent US6150090 come the findings set out here.

The series concerns the target IgNF-A (NF-A1), ubiquitous octamer-binding protein (Homo sapiens) (UniProt P14859). Description: EMSA. The conditions noted are these: affinity over heterologous plasmid DNA; poly(dI-dC) carrier; DNase I footprint -72 to -52.

IgNF-A (NF-A1), ubiquitous octamer-binding protein (Homo sapiens), sequence (P14859 whole entry): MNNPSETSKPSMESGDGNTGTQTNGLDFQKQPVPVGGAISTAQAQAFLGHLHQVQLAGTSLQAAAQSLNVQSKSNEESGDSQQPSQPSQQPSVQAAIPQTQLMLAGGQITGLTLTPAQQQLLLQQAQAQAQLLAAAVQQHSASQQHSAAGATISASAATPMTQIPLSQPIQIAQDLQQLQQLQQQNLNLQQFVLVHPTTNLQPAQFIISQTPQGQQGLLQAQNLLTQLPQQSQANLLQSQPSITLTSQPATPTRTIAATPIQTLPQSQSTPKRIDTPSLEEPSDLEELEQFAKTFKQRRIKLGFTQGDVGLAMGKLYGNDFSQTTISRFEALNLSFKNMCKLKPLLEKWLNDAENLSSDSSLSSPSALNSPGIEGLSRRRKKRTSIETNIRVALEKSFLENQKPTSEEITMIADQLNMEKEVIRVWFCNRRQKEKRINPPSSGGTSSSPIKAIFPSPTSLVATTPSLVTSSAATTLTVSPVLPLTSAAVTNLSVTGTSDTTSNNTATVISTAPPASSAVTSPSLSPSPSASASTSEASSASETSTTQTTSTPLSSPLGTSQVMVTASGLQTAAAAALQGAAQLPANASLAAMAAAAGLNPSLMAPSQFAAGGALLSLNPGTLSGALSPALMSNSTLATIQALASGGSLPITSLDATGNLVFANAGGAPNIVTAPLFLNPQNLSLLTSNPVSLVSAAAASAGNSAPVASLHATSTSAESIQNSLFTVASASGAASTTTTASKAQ

Consider “MOPC41 V kappa promoter PvuII-SfaNI fragment”, for which the binding signal was more than 10000 fold.
